From patent publication US10040853B2, “Methods and compositions involving NKG2D inhibitors and cancer” (Fred Hutchinson Cancer Research Center, priority 2011, dated 2018)

Tests used:
Assay type in all cases: cell-based, human
P-JNK1/2(T183/Y185) = experiment: JNK MAP kinase activation by sMICA plus crosslinking anti-His tag Ab (immunoblot); conditions: for phosphorylation of JNK1/2: desensitized EpCAM+CD45− ovarian cancer (OT63), HTB-78, MCF-7-TF cells, sMICA 1 μg/ml crosslinked by anti-His tag Ab, or EGF 100 ng/ml
Source text: (§1) NKG2D was immunoprecipitated from standard NP-40 buffer lysates of FACSAria-sorted EpCAM^+CD45^− cancer cells (˜5×10^6 per lane), tumor lines (˜5×10^7 cells; 2×10^7 cells with BT-20), and transfectants (5×10^6 cells) using mAb 5C6 immobilized on AminoLink Plus Coupling Resin (Pierce). DAP10 was immunoprecipitated using rabbit polyclonal antibodies (FL-93; Santa Cruz Biotechnology). Immunoblots were probed with polyclonal antibodies to NKG2D or DAP10 (N-20 and N-17; Santa Cruz Biotechnology), or Grb2 (Cell Signaling Technology) and developed using secondary reagents and Supersignal West Dura Extended Duration Substrate (Pierce). Immunoprecipitation and immunoblot detection of mouse NKG2D utilized a rat mAb (clone 191004; R&D Systems) and goat polyclonal reagent (H-15; Santa Cruz Biotechnology), respectively. For P-AKT induction, cancer cells and tumor lines (2×10^6 cells per experimental condition) cultured in 6-well plates were desensitized for 16 h and 4-24 h, respectively, in serum-free RPMI at 37° C. before exposure in 0.5 ml RPMI to insulin (5 μg/ml; 35 min at 37° C.), mAb 1D11 (purified with MabTrap Kit; GE Healthcare Life Sciences) or mAb 5C6 F(ab′)2 (produced with Pierce F(ab′)2 preparation kit) (each 5 μg/ml; 30 min at 4° C.). For crosslinking, washed cells in 0.2 ml RPMI were exposed to goat anti-mouse F(ab′)2 (20 μg/ml; 5 min at 37° C.; Jackson ImmunoResearch). Wortmannin (100 nM; Sigma) was applied 2 h before stimulations. Reactions were terminated on ice by addition of 1 ml sodium orthovanadate (Na3VO4, 2 mM in cold PBS; Calbiochem) and cells resuspended in NP-40 lysis buffer with protease inhibitor cocktail (Roche) and Na3VO4. Cleared supernatants were subjected to SDS-PAGE (4-12% gradient NuPAGE gels; Invitrogen) and proteins electroblotted onto PVDF membranes (Immobilon-P; Millipore), which were probed with rabbit anti-human phospho-AKT(S473) (clone 193H12) or pan-AKT (clone C67E7), secondary HRP-conjugated anti-rabbit IgG (all from Cell Signaling Technology), and chemiluminescent reagent. […] Inhibitors wortmannin (100 nM) and rapamycin (50 nM; LC Laboratories) were added after 2 h of desensitization. Detached cells were sequentially washed and exposed to 1D11 mAb and crosslinking Ab in 0.5 and 0.2 ml cold HBSS, respectively, and processed as above. […] Phosphoproteins and protein controls were detected using rabbit polyclonal antibodies (to P-mTOR, P-S6K1, and P-4E-BP1), mAbs (clones 7C10, 236B4, and 53H11), and anti-rabbit IgG-HRP (all from Cell Signaling Technology). MAPKs were detected with cells grown to semi-confluence in 6-well plates and desensitized for 24 h. […]
(§2) As determined so far, signaling pathway activation by NKG2D-DAP10 in tumor cells was similar to lymphocytes. […]

P-ERK1/2(T202/Y204) = experiment: ERK MAP kinase activation by sMICA plus crosslinking anti-His tag Ab (immunoblot); conditions: for phosphorylation of ERK1/2: desensitized EpCAM+CD45− ovarian cancer (OT63), HTB-78, MCF-7-TF cells, sMICA 1 μg/ml crosslinked by anti-His tag Ab, or EGF 100 ng/ml
Source text: as §1, §2

surface NKG2D = experiment: Flow cytometry of tumor lines for surface NKG2D; conditions: breast, colon, gastric, ovarian, prostate tumor lines after exposure
Method: Tumor cell lines BT-20, MDA-MB-453, HTB-78, AGS, MDA-MB-231, DLD-1, PC3, and A375 were grown in RPMI 1640, and MCF-7 in Eagle's minimal essential medium (EMEM) plus insulin (0.01 mg/ml; Sigma), both media supplemented with 10% FBS. The mouse TEC and PAM 212 lines were from the ATCC, and […] was provided by Dr. Norm Greenberg (FHCRC). Abs for immunohistochemistry and flow cytometry of cell surface markers were mAb together with HRP-conjugated secondary reagents and mAb-fluorochrome conjugates, respectively, to NKG2D (clone 1D11, -APC; 3), MICA/MICB (clone 6D4, -PE; 7), CD45 (clone 2D1, -APC-Cy7), CD3 (clone UCHT1) (all from BD Pharmingen), and EpCAM (clone 9C4, -Alexa Fluor 488; BioLegend). Binding of anti-ULBP1-5 antibodies (mAbs 3F1, 6F6, 4F9, 6E6, and 6D10; 14) was visualized with a PE-conjugated secondary reagent. Cancer cell viability was assessed using a LIVE/DEAD Fixable Violet Dead Cell Stain kit (Invitrogen). Immunohistochemistry stainings of tissue cryosections employed the Envision System (Dako) protocol. Cells were examined for mAb surface stainings using a BD LSR II flow cytometer and FlowJo software (Tree Star).

[1] = test system: P-mTOR(S2448), P-S6K1(T389), and P-4E-BP1(T37/46); experiment: Activation of mTOR-S6K1/4E-BP1 after NKG2D crosslinking (immunoblot); conditions: HTB-78 and MCF-7-TF cells after starvation
Method: Detached cells were sequentially washed and exposed to 1D11 mAb and crosslinking Ab in 0.5 and 0.2 ml cold HBSS, respectively, and processed as above. Sample electrophoresis was in 3-8% (mTOR) and 4-12% (4E-BP1) gradient NuPAGE gels. Phosphoproteins and protein controls were detected using rabbit polyclonal antibodies (to P-mTOR, P-S6K1, and P-4E-BP1), mAbs (clones 7C10, 236B4, and 53H11), and anti-rabbit IgG-HRP (all from Cell Signaling Technology).

P-AKT(S473) [2] = experiment: P-AKT induction after NKG2D crosslinking in freshly isolated cancer cells (immunoblot); conditions: sorted EpCAM+CD45− breast, ovarian, prostate cancer cells after serum deprivation; crosslinked Ab 5 μg/ml or insulin 5 μg/ml
Source text: (§3) NKG2D was immunoprecipitated from standard NP-40 buffer lysates of FACSAria-sorted EpCAM^+CD45^− cancer cells (˜5×10^6 per lane), tumor lines (˜5×10^7 cells; 2×10^7 cells with BT-20), and transfectants (5×10^6 cells) using mAb 5C6 immobilized on AminoLink Plus Coupling Resin (Pierce). DAP10 was immunoprecipitated using rabbit polyclonal antibodies (FL-93; Santa Cruz Biotechnology). Immunoblots were probed with polyclonal antibodies to NKG2D or DAP10 (N-20 and N-17; Santa Cruz Biotechnology), or Grb2 (Cell Signaling Technology) and developed using secondary reagents and Supersignal West Dura Extended Duration Substrate (Pierce). Immunoprecipitation and immunoblot detection of mouse NKG2D utilized a rat mAb (clone 191004; R&D Systems) and goat polyclonal reagent (H-15; Santa Cruz Biotechnology), respectively. […] Phosphoproteins and protein controls were detected using rabbit polyclonal antibodies (to P-mTOR, P-S6K1, and P-4E-BP1), mAbs (clones 7C10, 236B4, and 53H11), and anti-rabbit IgG-HRP (all from Cell Signaling Technology). MAPKs were detected with cells grown to semi-confluence in 6-well plates and desensitized for 24 h. […]

P-AKT(S473) [3] = experiment: P-AKT induction after NKG2D crosslinking in tumor lines (immunoblot); conditions: desensitized MCF-7, BT-20, MDA-MB-453, HTB-78, DLD-1, AGS cells
Source text: as §3

NKG2D = NKG2D protein depletion by siRNA (immunoblot); conditions: CD8 T cells, 2×10^6 per lane
Source text: as §3

MCF-7-TF cells [4] = experiment: Cell cycle analysis by propidium iodide staining; conditions: MCF-7-TF cells plated 24 h at near confluence without growth factors; Abs each 10 μg/ml
Method: DNA contents were determined with 70% EtOH-permeabilized and fixed cells treated with PI/RNase staining buffer (BD Pharmingen). Prior to analysis, cells were plated for 24 h in the presence or absence of each 10 μg/ml anti-MIC and -ULBP3 and -ULBP4 mAb or control Ig. Flow cytometry data were analysed using FlowJo cell cycle software with quantitative analysis based on Dean-Jett-Fox model curve fitting. Cellular ATP was determined using the ATPlite luminescence assay system (PerkinElmer). Real-time oxygen consumption and extracellular acidification rates were measured employing the Seahorse Bioscience Extracellular Flux Analyzer XF24 with cells (3×10^4) seeded in custom 24-well plates and grown overnight (34). Metabolic rates were calculated from multiple measurements in buffer-free medium within one h at 37° C. Differences in cell growth rates were accounted for by using fluorescence emission values of Hoechst stainings to calculate normalization factors for cell number corrections.
The inventors thus explored effects on cellular functions resulting from NKG2D stimulation using the MCF-7 mock-transfected control and MCF-7-TF model cells. Cells were plated at near confluence in the absence of growth factors with or without the relevant anti-MIC and anti-ULBP1/3/4 Abs or control Ig 24 h before assay time (FIG. 7). […]

MCF-7-TF cells [5] = experiment: Migration through porous filters and invasion in Matrigel assay
Method: MCF-7 cells were evaluated for stimulation of cellular migration through porous filters and for invasion of reconstituted basement membranes in MATRIGEL assays (FIG. 10).

MCF-7-TF cells [6] = experiment: EMT-like phenotype of MCF-7-TF cells (phase contrast, IF microscopy, immunoblot)
Source text: Diagnostic of EMT, among other criteria, are reduced expression of E-cadherin and induction of N-cadherin (Polyak and Weinberg, 2009; Thiery et al., 2009; Yang and Weinberg, 2008). […] Among key transcription factors is SNAI1 and Twist, which were induced in MCF-7-TF as well as in MCF-10A-TF and SUM149PT-TF cells (FIG. 8C). MCF-7-TF cells also scored increased migratory and invasive activities in Matrigel assays (FIG. 8D). Both ERK- and AKT-initiated signaling have been implicated in cancer EMT (Thiery et al., 2009).

[7] = test system: AKT(S473) phosphorylation; experiment: Inducible AKT phosphorylation in siRNA-transduced MCF-7 cells; conditions: lentiviral siRNA transduction
Source text: as §3

MCF-7 cells = experiment: Expansion of siRNA-transduced MCF-7 cells
DAP10 = DAP10 protein depletion by siRNA (immunoblot); conditions: CD8 T cells, 2×10^6 per lane
Source text: as §3

[8] = U0126 10 μM, SP600125 100 μM, wortmannin 200 nM, added 30 min before stimulation
[9] = tumor cell exposure to sMICA or anti-His tag Ab alone, no crosslinking

EGF: rhEGF, positive control activation of MAP kinases [reference compound]
phosphorylation of JNK1/2 (P-JNK1/2(T183/Y185)): positive control activation | phosphorylation of ERK1/2 (P-ERK1/2(T202/Y204)): positive control activation

IL-15: cytokine which induces T cell NKG2D
surface NKG2D expression (surface NKG2D): No increased expression

insulin: positive control activation of AKT, 5 μg/ml
induction of P-mTOR(S2448), P-S6K1(T389), P-4E-BP1(T37/46) [1]: positive control activation | induction of Phospho-AKT (P-AKT) (P-AKT(S473) [2]): positive control activation except for the unresponsive prostate cancer cells | induction of P-AKT (P-AKT(S473) [3]): positive control activation

N#CC(=C(/N)Sc1ccccc1N)/C(C#N)=C(\N)Sc1ccccc1N [U0126, reference compound]
effect of inhibitor on appearance of P-JNK1/2 (P-JNK1/2(T183/Y185); [8]): not vice versa | effect of inhibitor on appearance of P-ERK1/2 (P-ERK1/2(T202/Y204); [8]): diminished

B1: sMICA: recombinant soluble MICA, His-tagged NKG2D ligand purified from transfected 293T cells (protein)
chain: EPHSLRYNLTVLSWDGSVQSGFLTEVHLDGQPFLRCDRQKCRAKPQGQWAEDVLGNKTWDRETRDLTGNGKDLRMTLAHIKDQKEGLHSLQEIRVCEIHEDNSTRSSQHFYYDGELFLSQNLETKEWTMPQSSRAQTLAMNVRNFLKEDAMKTKTHYHAMHADCLQELRRYLKSGVVLRRTVPPMVNVTRSEASEGNITVTCRASGFYPWNITLSWRQDGVSLSHDTQQWGDVLPDGNGTYQTWVATRICQGEEQRFTCYMEHSGNHSTHPVPSGKVLVLQSHW
modifications: left off: small tags and cut ends
notes: recombinant soluble MICA, His-tagged NKG2D ligand purified from transfected 293T cells
phosphorylation of JNK1/2 (P-JNK1/2(T183/Y185)): resulted in phosphorylation | phosphorylation of JNK1/2, reagent alone (P-JNK1/2(T183/Y185); [9]): no effect | phosphorylation of ERK1/2 (P-ERK1/2(T202/Y204)): resulted in phosphorylation | phosphorylation of ERK1/2, reagent alone (P-ERK1/2(T202/Y204); [9]): no effect

B2: RNAi targeting of NKG2D: lentivirally expressed hairpin siRNA targeting NKG2D (KLRK1) mRNA positions 690-710; oligonucleotides SEQ ID NO:19 and 20 (nucleic acid, listed as Homo sapiens)
chain 1: CTAGACCCAACCTACTAACAATAATTTCAAGAGAATTATTGTTAGTAGGTTGGGTTTTTGAT
chain 2: ATCAAAAAACCCAACCTACTAACAATAATTCTCTTGAAATTATTGTTAGTAGGTTGGGT
modifications: the letters are possibly those of the target site
depletion of NKG2D (NKG2D): depletion | effect on enlarged proportions of cells in S and G2 phase (MCF-7-TF cells [4]): reversed | migratory and invasive activities (MCF-7-TF cells [5]): suppressed | changes in epithelial and mesenchymal marker proteins (E-cadherin, N-cadherin) (MCF-7-TF cells [6]; IF microscopy and immunoblot): reversed | cell morphology (MCF-7-TF cells [6]; phase contrast microscopy): restored the parental cell morphology | inducible AKT(S473) phosphorylation [7]: Absence of inducible AKT(S473) phosphorylation

B3: DAP10 siRNA: lentivirally expressed hairpin siRNA targeting DAP10 (HCST) mRNA positions 165-193; oligonucleotides SEQ ID NO:21 and 22 (nucleic acid, listed as Homo sapiens)
chain 1: CTAGAAGCTCAGACGACTCCAGGAGAGAGATCATTCAAGAGATGATCTCTCTCCTGGAGTCGTCTGAGCTTTTTTTGAT
chain 2: ATCAAAAAAAGCTCAGACGACTCCAGGAGAGAGATCATCTCTTGAATGATCTCTCTCCTGGAGTCGCTGAGCTT
modifications: the letters are possibly those of the target site
proliferation of transduced cells (MCF-7 cells): proliferated poorly | inducible AKT(S473) phosphorylation [7]: Absence of inducible AKT(S473) phosphorylation | depletion of DAP10 (DAP10): depletion
